Source: PMC3660092

Molecular target: YFP-IP3R type 1 (UniProt P11881)
Experiment: FRET or BRET

Chain of UniProt P11881 (P11881 whole entry): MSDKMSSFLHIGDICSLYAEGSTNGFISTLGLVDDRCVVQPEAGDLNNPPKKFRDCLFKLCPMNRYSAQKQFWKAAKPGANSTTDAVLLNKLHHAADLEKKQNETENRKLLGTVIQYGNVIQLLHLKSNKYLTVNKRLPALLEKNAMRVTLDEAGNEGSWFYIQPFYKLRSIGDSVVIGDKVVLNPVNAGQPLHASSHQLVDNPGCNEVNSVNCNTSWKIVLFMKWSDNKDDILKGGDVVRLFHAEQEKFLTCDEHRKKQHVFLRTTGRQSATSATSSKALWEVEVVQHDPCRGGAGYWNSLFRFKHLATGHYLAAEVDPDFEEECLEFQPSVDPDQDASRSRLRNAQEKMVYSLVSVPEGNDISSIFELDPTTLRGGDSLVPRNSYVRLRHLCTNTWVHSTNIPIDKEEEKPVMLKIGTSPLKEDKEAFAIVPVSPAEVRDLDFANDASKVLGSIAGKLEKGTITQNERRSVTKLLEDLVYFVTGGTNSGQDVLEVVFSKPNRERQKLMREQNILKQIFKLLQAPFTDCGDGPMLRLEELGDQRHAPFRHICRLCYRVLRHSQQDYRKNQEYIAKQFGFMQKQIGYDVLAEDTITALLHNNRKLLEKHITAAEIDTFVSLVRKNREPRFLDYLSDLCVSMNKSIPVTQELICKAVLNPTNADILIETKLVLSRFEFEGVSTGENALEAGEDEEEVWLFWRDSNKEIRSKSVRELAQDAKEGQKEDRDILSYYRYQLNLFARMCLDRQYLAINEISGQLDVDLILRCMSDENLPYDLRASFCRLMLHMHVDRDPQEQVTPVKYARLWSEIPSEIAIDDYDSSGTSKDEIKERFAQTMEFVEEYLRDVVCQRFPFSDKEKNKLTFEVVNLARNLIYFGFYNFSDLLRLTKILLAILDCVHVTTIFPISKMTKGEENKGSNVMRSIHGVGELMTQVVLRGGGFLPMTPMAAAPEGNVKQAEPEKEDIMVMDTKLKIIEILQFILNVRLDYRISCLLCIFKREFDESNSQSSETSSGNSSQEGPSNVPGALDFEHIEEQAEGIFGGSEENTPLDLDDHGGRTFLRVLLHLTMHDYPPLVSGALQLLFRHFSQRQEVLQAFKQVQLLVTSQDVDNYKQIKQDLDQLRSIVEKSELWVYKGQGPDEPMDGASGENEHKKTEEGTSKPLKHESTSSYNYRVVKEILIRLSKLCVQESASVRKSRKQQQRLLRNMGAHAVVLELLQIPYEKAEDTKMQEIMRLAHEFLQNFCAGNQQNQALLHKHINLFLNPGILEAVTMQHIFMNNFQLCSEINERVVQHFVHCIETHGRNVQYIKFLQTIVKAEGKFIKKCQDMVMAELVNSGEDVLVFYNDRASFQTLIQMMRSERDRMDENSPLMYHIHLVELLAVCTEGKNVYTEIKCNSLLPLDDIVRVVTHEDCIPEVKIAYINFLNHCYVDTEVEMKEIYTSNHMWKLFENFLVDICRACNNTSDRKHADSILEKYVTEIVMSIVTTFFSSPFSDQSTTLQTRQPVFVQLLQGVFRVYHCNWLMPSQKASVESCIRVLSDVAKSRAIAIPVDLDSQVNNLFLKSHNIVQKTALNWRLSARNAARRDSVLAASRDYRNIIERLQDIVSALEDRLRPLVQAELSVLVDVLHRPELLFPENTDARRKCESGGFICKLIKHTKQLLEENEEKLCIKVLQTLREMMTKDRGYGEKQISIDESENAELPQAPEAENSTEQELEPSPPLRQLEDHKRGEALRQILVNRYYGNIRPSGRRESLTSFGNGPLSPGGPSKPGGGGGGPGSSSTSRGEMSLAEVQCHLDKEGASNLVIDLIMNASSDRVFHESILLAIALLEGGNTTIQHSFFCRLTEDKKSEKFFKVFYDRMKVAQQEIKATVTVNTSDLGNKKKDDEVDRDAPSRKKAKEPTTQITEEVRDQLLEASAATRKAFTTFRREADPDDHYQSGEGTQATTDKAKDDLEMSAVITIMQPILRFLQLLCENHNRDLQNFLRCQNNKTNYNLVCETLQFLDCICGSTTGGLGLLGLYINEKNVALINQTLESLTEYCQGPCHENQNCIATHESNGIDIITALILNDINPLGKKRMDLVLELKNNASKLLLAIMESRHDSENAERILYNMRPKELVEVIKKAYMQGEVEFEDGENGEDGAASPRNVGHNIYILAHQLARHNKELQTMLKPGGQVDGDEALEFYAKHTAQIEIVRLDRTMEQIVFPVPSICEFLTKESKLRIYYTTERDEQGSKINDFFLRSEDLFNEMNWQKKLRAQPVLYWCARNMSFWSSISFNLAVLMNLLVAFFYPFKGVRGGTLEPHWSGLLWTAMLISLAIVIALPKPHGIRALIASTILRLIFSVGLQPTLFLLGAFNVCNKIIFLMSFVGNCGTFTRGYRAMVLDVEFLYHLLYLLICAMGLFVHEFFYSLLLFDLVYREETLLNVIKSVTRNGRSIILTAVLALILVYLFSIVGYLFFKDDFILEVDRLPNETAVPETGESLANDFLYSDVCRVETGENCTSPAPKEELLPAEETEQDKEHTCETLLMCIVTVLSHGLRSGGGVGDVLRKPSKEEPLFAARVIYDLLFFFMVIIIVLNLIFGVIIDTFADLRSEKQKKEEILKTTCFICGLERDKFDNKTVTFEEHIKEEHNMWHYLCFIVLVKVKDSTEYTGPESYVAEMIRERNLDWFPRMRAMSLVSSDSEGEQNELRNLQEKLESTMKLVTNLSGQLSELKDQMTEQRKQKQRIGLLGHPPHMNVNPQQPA

increase of the CFP signal after YFP bleaching (FRET efficiency): 28%
Substance: CFP-Bcl-2 (from UniProt P10415 1-239) (natural protein)
